Two molecules from paper PMC2902579 can be followed below.

Data set [1] deals with T1, PKR dsRBD (p20) (UniProt P19525 1-184). In words: EMSA.
Data set [2] has as its target T1, PKR dsRBD (p20). Description: nuclease footprinting.

T1 sequence (P19525 1-184): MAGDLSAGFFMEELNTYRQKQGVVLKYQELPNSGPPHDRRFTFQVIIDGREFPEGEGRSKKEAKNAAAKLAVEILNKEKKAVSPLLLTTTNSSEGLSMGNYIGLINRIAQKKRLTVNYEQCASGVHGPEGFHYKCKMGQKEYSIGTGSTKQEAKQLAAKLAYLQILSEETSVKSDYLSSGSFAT

B1: HCV IRES domains III-IV (131-388) (structured_RNA)
RNA: GGGAGAGCCAUAGUGGUCUGCGGAACCGGUGAGUACACCGGAAUUGCCAGGACGACCGGGUCCUUUCUUGGAUCAACCCGCUCAAUGCCUGGAGAUUUGGGCGUGCCCCCGCGAGACUGCUAGCCGAGUAGUGUUGGGUCGCGAAAGGCCUUGUGGUACUGCCUGAUAGGGUGCUUGCGAGUGCCCCGGGAGGUCUCGUAGACCGUGCACCAUGAGCACGAAUCCUAAACCUCAAAGAAAAACCAAAGGGCGCGCCGC
Turning to B1, the binding result in data set [1] is “binds”.

B2: HCV IRES domain II (39-119) (structured_RNA)
RNA: GGACUCCCCUGUGAGGAACUACUGUCUUCACGCAGAAAGCGUCUAGCCAUGGCGUUAGUAUGAGUGUCGUGCAGCCUCCAGGA
With B2, the binding result in data set [2] is listed as “binds”.
